This note sets out measurements from patent publication US20180273595A1.

Usually Kd stands for the equilibrium constant for the complex coming apart.

The target of experiment [1] is recombinant His-tagged full-length ERG (UniProt P11308). As to the kind of experiment: Kd table of synthetic peptides on ERG; assay not given.
Experiment [2] shares this target. As to the kind of experiment: OctetRED; Kd table of synthetic peptides on ERG.

Sequence of recombinant His-tagged full-length ERG (P11308 whole entry): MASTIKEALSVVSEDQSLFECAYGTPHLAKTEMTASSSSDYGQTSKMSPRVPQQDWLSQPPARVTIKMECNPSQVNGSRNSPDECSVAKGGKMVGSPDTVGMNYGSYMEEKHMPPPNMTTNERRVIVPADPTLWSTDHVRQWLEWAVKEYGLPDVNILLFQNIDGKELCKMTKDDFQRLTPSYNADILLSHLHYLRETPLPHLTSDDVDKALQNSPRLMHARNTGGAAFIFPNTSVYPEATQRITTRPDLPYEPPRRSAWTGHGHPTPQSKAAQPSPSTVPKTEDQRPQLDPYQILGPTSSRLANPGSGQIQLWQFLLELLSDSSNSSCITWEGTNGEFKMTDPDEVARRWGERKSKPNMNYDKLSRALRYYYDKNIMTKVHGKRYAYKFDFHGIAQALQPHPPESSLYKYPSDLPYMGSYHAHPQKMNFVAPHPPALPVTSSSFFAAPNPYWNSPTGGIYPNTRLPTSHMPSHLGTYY

“3-mer PYL capped at both termini (Ac-PYL-NH2) (peptide)”: in experiment [1], the Kd came to 7.5 µM.
Same read-out and setting: for “3-mer PYL capped at the N-terminus only (Ac-PYL) (peptide)” the value was 8.7 µM.
For “7-mer LPPYLFT capped at the C-terminus only (LPPYLFT-NH2) (peptide)”, in experiment [2], the dissociation constant (Kd) was more than 100 µM.
Regarding “EIP1 capped at both termini (Ac-LPPYLFT-NH2) (peptide)”, the Kd in experiment [1] and in experiment [2] was more than 100 µM in each case.
